The source of these data is patent US20150361149A1 (FLORIDA STATE UNIVERSITY RESEARCH FOUNDATION, published 2015).

The target of data set [1] is FGFR on NIH 3T3 fibroblasts. The experiment in a line: cell-based or functional assay.
Data set [2] deals with the molecule itself. As to the kind of experiment: size-exclusion chromatography of peptide fragments.
Data set [3] concerns the molecule itself. As to the kind of experiment: X-ray crystal structure (Δ1-10 form). The source says: Crystals of Monofoil-4PΔ1-10 and Difoil-4PΔ1-10 grew in 2 M ammonium sulfate, 0.1 M Na citrate pH 5.5. Crystals were mounted in a stream of gaseous nitrogen at 100 K and diffraction data were collected at either the Southeast Regional Collaborative Access Team 22-BM beam line (λ=1.00 Å) at the Advanced Photon Source, Argonne National Laboratory, using a MarCCD 300 detector (Mar USA) or at the X25 beam line of the National Synchrotron Light Source at Brookhaven National Laboratory, using an ADSC Q315 CCD detector. Each dataset was collected from a single crystal except Monofoil-4PΔ1-10 and Difoil-4PΔ1-10. Datasets from two crystals of Monofoil-4PΔ1-10 were combined for better completion and redundancy.
Diffraction data were indexed, integrated, and scaled using the HKL2000 software package (Otwinowski Z (1993) Proceedings of the CCP4 Study Weekend: “Data Collection and Processing”, eds Sawyer L, Isaacs N, Bailey S (Science and Engineering Research Council, Daresbury Laboratory, England), pp 56-62 and Otwinowski Z and MinorW (1997) Meth Enzymol 276:307-326). Molecular replacement and model building utilized the PHENIX software package (Zwart P H et al. (2008) Methods Mol Biol 426:419-435), with 5% of the data in the reflection files set aside for Rfree calculations (Brunger A T (1992) Nature 355:472-475). […]

With “human fibroblast growth factor-1 (FGF-1), 140 amino acid form (from UniProt P05230 16-155) (ligand)”, in data set [1], the mitogenic activity with 3T3 fibroblasts, EC50 worked out at 0.0584 µg/mL.

B1: peptide fragment of FGF-1, residues 10-52 (first trefoil-fold subdomain) (peptide, UniProt P05230 25-67, looked up)
peptide: KPKLLYCSNGGHFLRILPDGTVDGTRDRSDQHIQLQLSAESVG
Regarding B1, the binding result in data set [2] was “no binding”.

B2: peptide fragment of FGF-1, residues 53-93 (second trefoil-fold subdomain) (peptide, UniProt P05230 68-108, looked up)
peptide: EVYIKSTETGQYLAMDTDGLLYGSQTPNEECLFLERLEENH
Consider B2, for which, in data set [2], the binding result is on record as “no binding”.

B3: Difoil-4PΔ1-10 (other)
chain: HHHHHHPVLLKSTETGQYLRINPDGTVDGTRDRSDPHIQFQISPEGNGEVLLKSTETGQYLRINPDGTVDGTRDRSDPHIQFQISPEGNG
notes: Form used for crystallisation (PDB 3OGF); Three chains make two β-trefoil folds; also called Difoil-4P* (Δ1-10 mutant form)
With B3, in data set [3], the binding result is listed as “binds”.

B4: peptide fragment of FGF-1, residues 94-140 (third trefoil-fold subdomain) (peptide, UniProt P05230 109-155, looked up)
peptide: YNTYISKKHAEKNWFVGLKKNGSCKRGPRTHYGQKAILFLPLPVSSD
Take B4: in data set [2], the binding result is “no binding”.
